The record followed here is PMC2698047.

Read-outs that look alike come from different tables or passages of the source.

Common to all, as to assay: competition
Data set [1] has as its target T1, TP0262 (TpCRP, CRP homolog) (Treponema pallidum subsp. pallidum, UniProt O83286 1-224).
T1 sequence: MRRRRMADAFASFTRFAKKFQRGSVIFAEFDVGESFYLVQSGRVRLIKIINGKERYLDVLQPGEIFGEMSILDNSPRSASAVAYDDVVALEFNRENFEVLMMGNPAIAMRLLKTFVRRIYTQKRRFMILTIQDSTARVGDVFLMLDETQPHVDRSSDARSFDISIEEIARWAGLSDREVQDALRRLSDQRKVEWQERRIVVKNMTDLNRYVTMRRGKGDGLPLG

Data set [2] has as its target T1, TP0262 (TpCRP, CRP homolog). The source holds these as a separate data set.
The target in another data set is E. coli CRP (Escherichia coli K12 MG1655, UniProt P0ACJ8 1-210).
E. coli CRP, sequence (P0ACJ8 whole entry): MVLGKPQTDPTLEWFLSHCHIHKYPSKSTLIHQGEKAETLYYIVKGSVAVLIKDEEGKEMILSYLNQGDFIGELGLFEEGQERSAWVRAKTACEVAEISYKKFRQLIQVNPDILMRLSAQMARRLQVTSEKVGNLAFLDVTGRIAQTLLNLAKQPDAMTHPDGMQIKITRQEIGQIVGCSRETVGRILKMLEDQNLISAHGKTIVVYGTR
The target in data set [3] is T1, TP0262 (TpCRP, CRP homolog). The source holds these as a separate data set.

B1: tprG competitor oligo (dsDNA)
DNA 1: GTCAGTGCTAGCAGTCACATAC
DNA 2: GTATGTGACTGCTAGCACTGAC
For B1, the binding result in data set [1] is reported as “binds”.

B2: tprJ competitor oligo (dsDNA)
DNA 1: GTTGTCAGTGCACGAGGAGGAG
DNA 2: CTCCTCCTCGTGCACTGACAAC
In the case of B2, the binding result in data set [2] is recorded as “binds”.

B3: lac competitor oligo (E. coli CRP site) (dsDNA)
DNA 1: AAATGTGATCTAGATCACATTT
DNA 2: AAATGTGATCTAGATCACATTT
In the case of B3, the binding result with E. coli CRP is on record as “binds”.

B4: tprE competitor oligo (dsDNA)
DNA 1: TGCGTGTGTGTGTGGGCTCGTGCTG
DNA 2: CAGCACGAGCCCACACACACACGCA
With B4, the binding result in data set [3] was “binds”.
